This note sets out measurements from patent CN107880130A (SHENZHEN GUOCHUANG NANO ANTIBODY TECH CO LTD, dated 2018).

One experiment concerns the target 癌胚抗原 (CEA, CEACAM5) (UniProt P06731). In words: SPR (Biacore T100), antibody captured by Protein A, antigen injected at 100μg/ml.
The next experiment concerns the target T1, HE4 (UniProt Q14508 31-124).
T1 sequence (looked up): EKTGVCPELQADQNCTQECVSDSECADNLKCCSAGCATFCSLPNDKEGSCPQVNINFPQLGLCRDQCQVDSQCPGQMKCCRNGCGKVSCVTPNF
The experiment in a line: SPR (Biacore T100), antibody captured by Protein A, antigen injected. (In general: In SPR one partner is held on a chip, and binding of the other changes the refractive index at the surface.)

The target of a further experiment is T2, CEACAM3 (UniProt P40198 35-155, limits assumed).
T2 sequence (looked up): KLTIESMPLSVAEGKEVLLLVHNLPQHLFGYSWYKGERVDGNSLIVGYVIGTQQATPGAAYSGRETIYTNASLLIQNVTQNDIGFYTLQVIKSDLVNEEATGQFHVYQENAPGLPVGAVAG
The description is as above.

The target of the next experiment is T3, CEACAM1 (UniProt P13688 35-428, limits assumed).
T3 sequence (looked up): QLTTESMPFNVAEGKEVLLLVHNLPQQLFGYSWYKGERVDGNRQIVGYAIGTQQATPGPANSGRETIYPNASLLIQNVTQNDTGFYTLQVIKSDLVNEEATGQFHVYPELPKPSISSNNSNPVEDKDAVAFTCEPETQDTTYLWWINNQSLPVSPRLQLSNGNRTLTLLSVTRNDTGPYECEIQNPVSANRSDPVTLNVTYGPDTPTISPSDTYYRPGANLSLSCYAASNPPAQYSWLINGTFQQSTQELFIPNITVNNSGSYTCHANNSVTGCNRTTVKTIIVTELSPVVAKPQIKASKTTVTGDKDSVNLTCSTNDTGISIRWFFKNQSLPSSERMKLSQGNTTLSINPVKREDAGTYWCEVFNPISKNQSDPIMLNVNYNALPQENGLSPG
The experiment is described as above.

The target of another experiment is T4, CEACAM8 (UniProt P31997 35-320, limits assumed).
T4 sequence (looked up): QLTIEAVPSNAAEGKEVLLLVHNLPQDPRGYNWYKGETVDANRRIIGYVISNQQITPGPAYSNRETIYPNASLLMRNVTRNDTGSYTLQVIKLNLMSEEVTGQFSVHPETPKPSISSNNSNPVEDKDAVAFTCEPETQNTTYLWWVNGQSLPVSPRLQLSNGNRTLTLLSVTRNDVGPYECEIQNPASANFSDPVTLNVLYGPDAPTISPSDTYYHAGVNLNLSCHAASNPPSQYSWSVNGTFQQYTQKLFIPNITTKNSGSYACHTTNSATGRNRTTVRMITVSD
Described as above.

In a further experiment the target is T5, AFP (UniProt P02771 19-609).
T5 sequence (looked up): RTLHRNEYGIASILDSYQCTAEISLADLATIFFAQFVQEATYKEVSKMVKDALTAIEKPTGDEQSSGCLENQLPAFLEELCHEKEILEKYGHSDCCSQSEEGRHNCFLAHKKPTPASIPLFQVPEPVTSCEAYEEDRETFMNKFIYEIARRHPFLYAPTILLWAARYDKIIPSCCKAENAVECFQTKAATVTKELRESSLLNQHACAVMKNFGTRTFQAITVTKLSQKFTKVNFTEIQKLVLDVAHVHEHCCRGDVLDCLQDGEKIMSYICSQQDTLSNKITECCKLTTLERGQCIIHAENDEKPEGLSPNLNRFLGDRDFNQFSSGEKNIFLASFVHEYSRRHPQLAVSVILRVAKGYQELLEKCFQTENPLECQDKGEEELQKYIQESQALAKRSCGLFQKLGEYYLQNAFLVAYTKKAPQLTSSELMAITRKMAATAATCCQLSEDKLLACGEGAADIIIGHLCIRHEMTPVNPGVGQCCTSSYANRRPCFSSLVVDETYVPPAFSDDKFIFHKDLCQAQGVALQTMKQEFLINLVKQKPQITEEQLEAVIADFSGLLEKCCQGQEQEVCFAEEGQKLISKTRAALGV
The experiment is described as above.

The next experiment deals with T6, CEACAM6 (UniProt P40199 35-320, limits assumed).
T6 sequence (looked up): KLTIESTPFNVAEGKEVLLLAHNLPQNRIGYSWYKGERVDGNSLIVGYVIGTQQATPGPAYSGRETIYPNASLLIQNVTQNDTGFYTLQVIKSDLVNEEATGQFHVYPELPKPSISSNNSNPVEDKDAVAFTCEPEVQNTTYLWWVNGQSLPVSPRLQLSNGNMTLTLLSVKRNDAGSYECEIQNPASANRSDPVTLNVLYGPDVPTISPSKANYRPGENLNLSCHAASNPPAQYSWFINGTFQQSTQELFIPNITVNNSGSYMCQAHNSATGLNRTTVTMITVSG
The experiment is described as above.

B1: 2D5 连接至带有恒定区的载体 (2D5 nanobody with constant region) (Fc fusion)
chain: ESGGGLVQAGGSLRLSCVASGRTFSSHPMGWFRQAPGKEREFVAGISWSGGSTHYADSVKGRFTISRDTAKNTVYLQMNSLKPEDTAVYYCNAALSERTPIATMPSQYDYWGQGT
notes: not shown: constant region from the vector
The molecule B1 yielded a 结合 (SPR binding response) with 癌胚抗原 (CEA, CEACAM5) of 53.3. The binding result with HE4, with CEACAM3, in the experiment with CEACAM1, with CEACAM8, in the experiment with AFP and with CEACAM6 was “no binding (tested: 100μg/ml)” each time.
